In paper PMC9637222 (2022):

What was measured:
Assay in all cases: ITC
[1] = biological target: T1, SipB (tag-free, purified) (S. Typhimurium, UniProt Q56019 1-593)
T1 chain: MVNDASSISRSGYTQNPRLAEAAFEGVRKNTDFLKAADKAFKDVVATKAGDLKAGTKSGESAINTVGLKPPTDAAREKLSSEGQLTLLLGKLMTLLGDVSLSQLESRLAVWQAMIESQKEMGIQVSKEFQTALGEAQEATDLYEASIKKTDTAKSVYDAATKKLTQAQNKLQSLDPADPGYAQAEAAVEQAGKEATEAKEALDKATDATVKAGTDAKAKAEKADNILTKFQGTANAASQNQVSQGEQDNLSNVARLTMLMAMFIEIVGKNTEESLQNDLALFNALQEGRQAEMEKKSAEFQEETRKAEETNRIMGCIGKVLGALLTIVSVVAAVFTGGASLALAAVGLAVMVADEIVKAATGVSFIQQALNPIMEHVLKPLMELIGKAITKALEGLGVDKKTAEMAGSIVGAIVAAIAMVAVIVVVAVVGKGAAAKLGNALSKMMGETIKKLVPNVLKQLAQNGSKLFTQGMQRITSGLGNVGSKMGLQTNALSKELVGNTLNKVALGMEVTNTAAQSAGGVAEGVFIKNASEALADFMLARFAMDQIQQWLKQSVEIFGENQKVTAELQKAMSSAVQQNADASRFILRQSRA

[2] = biological target: T2, SipC (tag-free, purified) (S. Typhimurium, UniProt P0CL47 1-409)
T2 chain: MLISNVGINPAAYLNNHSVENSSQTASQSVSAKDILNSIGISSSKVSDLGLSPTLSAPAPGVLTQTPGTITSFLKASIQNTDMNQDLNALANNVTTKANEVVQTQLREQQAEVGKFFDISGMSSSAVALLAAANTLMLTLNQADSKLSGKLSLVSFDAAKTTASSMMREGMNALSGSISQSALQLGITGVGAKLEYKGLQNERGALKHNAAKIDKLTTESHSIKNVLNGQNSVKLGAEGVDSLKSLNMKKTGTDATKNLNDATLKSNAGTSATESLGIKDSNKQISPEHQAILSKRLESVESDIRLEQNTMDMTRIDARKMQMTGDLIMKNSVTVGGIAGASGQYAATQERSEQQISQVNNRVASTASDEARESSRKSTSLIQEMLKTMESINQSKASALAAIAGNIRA

[3] = biological target: T3, InvF (tag-free, purified) (S. Typhimurium, UniProt P69343 1-216)
T3 chain: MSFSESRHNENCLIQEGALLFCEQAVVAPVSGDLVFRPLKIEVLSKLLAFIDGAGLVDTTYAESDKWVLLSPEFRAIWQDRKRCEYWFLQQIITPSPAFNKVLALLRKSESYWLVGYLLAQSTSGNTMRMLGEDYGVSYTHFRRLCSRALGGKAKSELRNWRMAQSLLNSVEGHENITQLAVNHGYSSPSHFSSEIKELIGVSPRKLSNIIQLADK

B1: SicA (tag-free, purified) (natural protein)
chain: MDYQNNVSEERVAEMIWDAVSEGATLKDVHGIPQDMMDGLYAHAYEFYNQGRLDEAETFFRFLCIYDFYNPDYTMGLAAVCQLKKQFQKACDLYAVAFTLLKNDYRPVFFTGQCQLLMRKAAKARQCFELVNERTEDESLRAKALVYLEALKTAETEQHSEQEKE
[1]
  Kd: 530 nM
[2]
  Kd: 610 nM
[3]
  Kd: 460 nM
